{"source": "the NTF2 design screens of Basanta et al. (2020)"}
{"assay": "protease stability score; higher = more stable; yeast display proteolysis, trypsin and chymotrypsin;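 further: log10 excess protease needed over predicted unfolded state with 0 meaning unfolded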"}
{"sequence": "DERHIHELVKNMQTNNFEEIKKQLDENVRVVVGDTVYHGREQASKALEDMKRMADRIRYTRVDFKGNKVRIDVVMNINGHNLKMVITVVVQNGRIKELVFTARNDEVKTRLDHAIR", "protease stability score": 1.13}
{"sequence": "DERHNKQWNKELIKIWTDGDHKKFSEMLDKDVQIQVGDKEYHGREEIVRQYKTLMDRADHFEVKRYEVKGNDITIIFTFQVNGRRDQVRVVFVIENGHVKKITMDKK", "protease stability score": 1.42}
{"sequence": "DERIKDTVDQMWSAVKNNDPDQMNENFDPNARIEVGDKEVHGRDTLKKWQDTQNKRSNKDMESVSVKVDGDKVDIEAESKFTNNGQPHTNKMTASARLENGRFKEVHIDSRK", "protease stability score": -0.513}
{"sequence": "DERIRKEHTKRLKAEQTGDPKSAHDMADENVRVKVGDKDLTGMDNIVKTIHEEKKDQRNQLDVHSIELHGEKVKIEMQVVIEHNGRPHKTEQYLVFRADNGKLKRMEQHDSG", "protease stability score": 0.023}
{"sequence": "DERKAEHWLDQLAQMLRTGDESHVARLMDENVNVVIGDQRFHGSDEARKAIRQLKERIDHLEVKDMKNEGNKMVVKAVADVNGRTHHLDVQMEFKNGRITRASFDPTAIKQAEG", "protease stability score": 1.14}
{"sequence": "DERKAEQNARDLAQALITGDPKRVMDLADENAEVQYGDKTYSGRERLDEVVRSFRRAVDHVDVDDIKEKGDHLRIKMTIQHNGQTRQVTLDIRVKNGKAEQIKFDFTDKDWYRRAIK", "protease stability score": 0.344}
{"sequence": "DERKAVKHLNTMMRLINTGNPSEAADQADKDVKVHIGDKDVHGRERASDLIKKLRDRVDTIKVKSIEERPNHLSAKIDLEHNGRTHTVVFIIHAENGKVTSMSVKTD", "protease stability score": -0.349}
{"sequence": "DERKEAKEFADRIVKIIQTNNQDELEKNADPDVRVDVGDKQVHGREQLQDELKKLRTRADHVEVKIQDFKVHNGSVTVQMTIVYVVNGQKHKDERVYHAEIHNGRVKLKSARQK", "protease stability score": 0.767}
{"sequence": "DERKEAKKWLDRLNKALHTGDSDKLKDMVDKDVRFNIGDKEIHGREQYVKHVQTRAEQIDDVQIHIHSIHVSGDEIVLTYHVVYNVNGRQESDVFNLVMVKNNGRLVVRSVTKG", "protease stability score": -0.012}
{"sequence": "DERKEMQKHFDRFVTALRENNPDQLREMADPDAKVRIGDKTLHGRDEVVHYLQLLAERADHISFDVKQFDVHNGVAHVDLRMRFTVNGQERHKDMIFVLNEVNGTVVIVQVQDK", "protease stability score": 1.72}
{"sequence": "DERKIEHAQRILKHNDKHKLQNLFDKNARLEIGDTTFTGRERAQHWARRLYQQADHFEVKSVDNNPNDLTVELVVRVNGHDIHFQFRFRIKNGRITSFQVDYTDEDDERKMKDVDR", "protease stability score": 0.369}
{"sequence": "DERKKDRMRELFEAWKTGDEHTAEKMLDKDAKIDVGDHRVQGREQHSTDVRRRKEEIRLRVDIDSIHIHNGRVSVEYKEENNHNGKPDTKNARVDFNMHNGRVQEQKQSNES", "protease stability score": -0.35}
{"sequence": "DERKKVEDVARHWVEAFKEGDKDRLTSLMDENVTVKVGDKQVHGSEELLEDMTNKIKQHDHVDAKILSVTFHGDEAEVDVEVRLNHNGKNRHDRYVMVMRVHNGTLRLKKLTQK", "protease stability score": 1.24}
{"sequence": "DERKLATRHAHTLDRILRTGDEERYVDMADKDVKFDVGDRKYKGRHELHKLAKEEQKKADHLQLNYKHITAHNGRVDMDVVVVQVHNGQKRQTNVRYSEEIHNGNVIVQSATEK", "protease stability score": -0.355}
{"sequence": "DERKQENVAKRVIRALQTGDSDMMERLVDPNAEVRYGDKRLRGREELREFVTTFKRAVDHLSFDRFEVHNGRAVANAKLNVNGRVMHVRIIVNFHDGRVTHIQIDVTDESQATRARS", "protease stability score": 0.643}
{"sequence": "DERKQHEVAEKVAKNFVDGNPSEFVKNMDPNAEVVIGDKTVTGREDIHRLVKDFHDKIDHIELKDLKVKNGRIEIIFQADNNGHKRQYRADVKANNGRMTTFEVREQ", "protease stability score": 0.927}
{"sequence": "DERKRAEKALNEWQRMWKYGNEEDFQKLADENVHFKYGDKTYRGREKMRKWVKEVLDSVDHVEVRIVSLHVRGDKITVRIRIYMEHNGRRTSFEYTMQLVDNNGHIVIVRFEQN", "protease stability score": 0.203}
{"sequence": "DERKRAKKALDDLKHAMHSNDPDKQKELMDENVELKYGDRHVNGREQANQHAEEHFERADHLDQKIQTWDIHNGKVSVTFTMTIEFNGRRENIQVQVTFDTVDGRLRIRTAREK", "protease stability score": 0.525}
{"sequence": "DERKRATEIAEQIQTILRTGNPKDMRRMADEDVKVDVGDQRIHGRDQLATTLHKLRKRADHIDIKIVSVNAQGDKFVVRQRVRETVNGRVRTFEFVMVLRVHNGREVVKSRHQS", "protease stability score": 0.225}
{"sequence": "DERKSAENFFHTLVKVMETGDEDKARKMFDENADAEVGDTEYHGREQLSKYMMTLVKNIDHIRLDLRDMHIEGDKIDIHADVEYRVNGQRTTNKLTVDVEIDNGRNKAQDIKFK", "protease stability score": 0.214}
{"sequence": "DERKVDVARNVAKAILTNDPDRAMSMVDKDVTVVIGDKEINGHEDFREHIEKQSKEAKLDMRSVDADNRGDKAVLTLDYQIDYNGKPMRDTQTIEVHVTNGRVKELRVRVDESLKRDLKS", "protease stability score": -0.28}
{"sequence": "DERLADQVVELLHVMEDGDEKRVDQLIDKDVKFKVGDKDYHGDETARRRAKNLRDQMRIEYDLKDYRTNGDNAILNAEVRMNINGQPYSHHVKIVVRARNGKVKHLQMSFDEETQKKVDQ", "protease stability score": 0.909}
{"sequence": "DERLAKQVLTMMRNERTGNEHEVDKYVDPNARFQVGDQEIHGKEELRKEVSRRRNEMRIDFRVEDMKVHGDKVHLSFKNMKNHNGRPESFRATATVHVHNGTVKSVDIKTTK", "protease stability score": -0.453}
{"sequence": "DERLEDKMRKFLEVLRTGDEKKLRDLADPNVRFDIGEKKYRGRDEAVREYKRMRDEIRFEIKIRSLEAQGNKVDVTFEMTYDHNGKPKHNVVKLVFEQHNGKLKQLKVKSDK", "protease stability score": 0.596}
{"sequence": "DERLHKQIERLFEQLNTGDEDKYVEYADPNARINVGDKNVHGRDQIRHMIRKENQEIRVEYEVKDIKASNGRARVDATVENEENGRPHTNRIDLVINVHNGRAKEIELRVPEDLLRTMKS", "protease stability score": -0.131}
{"sequence": "DERLKEQVKRLWEALKENDHDELSKLVDKDAHIVVGDKEVHGRENFMTEMATELSEIRIDYKRLHIDAQGDTADVEVDVEQEHNGQPRRDVKRVEFEYENGRLVKMNVQDNG", "protease stability score": 0.438}
{"sequence": "DERLLHEFQKNVENNNWDKLSELVDEDAKIKYGDKTITGRESLDRMFTQLKRQVDHVDIESVHIDGDKVHVDLRIRVNGHSVRFIMTAEFSNGRIKSMKIEVTSEEQQDHLNEQLS", "protease stability score": 1.19}
{"sequence": "DERLREQLNRFHKLLEKNNPEKLVEQLDPNAEFEVGDKQYHGREQIEDWQRRLAKRQRFSRDFKSIDASNGNVRATFRVVITHDGKPDDYLAVMHFQVKNGKFKRFVIKRNQ", "protease stability score": 0.291}
{"sequence": "DERMDDTLRRLVERGDFHKIAENADPNVRMQVGNKVFHGREEVRRAAERWQNQVDHYQVDSVRVHNGHVSAHVQATVNGQRIRFTIKIDVQGDKVQRMEIEFTSEEQKKLQDEAVE", "protease stability score": 1.41}
{"sequence": "DERMKKLAEQIVKARRTGDEKQQKELFDEDAHVQIGDKTVHGKENQIETMKKRRDEIRVEIRINSLSVNNGKADISLEQTDDKNGTPKTDVVRATVHATNGRVKEVRYKHDG", "protease stability score": -0.156}
{"sequence": "DERNERVFHHFVEAISFNDPQQARRNADKDVKFDVGEKVLHGREEWDKQMEHNKKHMRQDMRVKEVSTSGDKVTARVEQEHNHNGKPSTRDVKMSVEINNGKIKSFRLTTVS", "protease stability score": -0.129}
{"sequence": "DERNIERARKWWEALQENNPDQARKLMDKDVTFTYGDKTYHGREDIAKDIHRRLENMRVEIKSMTLEDHNGRVDAQVDLVVDVNGQPRQVTLDAKVNVENGRVKEFNVQFDEQLRHDIQK", "protease stability score": 0.132}
{"sequence": "DERNKKVLRQFMHAQMRGNPEKAKKLADPNAKFQVGDKTVHGMDEWVRQLDRKKKQIRFEVRVDSVRVHGDNVTMHVEYRATYNGKPYSDKVDYSARLHNGKITKLSAEMDPEFQRELDT", "protease stability score": 0.296}
{"sequence": "DERNKRRFDEFERARKTGDPDRMKELADPNAKLDVGNKTITGMDEIVRQLKHEQDKIEIDIKFDRITVQGNNLRAEYHEEYNVNGKPFHDKVVLEVQFDNGKIRELKLRVDPEKQDERRT", "protease stability score": -0.003}
{"sequence": "DERNLHVANEFWKVLTDGDPRRLMELVDPNAKIQYGDKTITGREEIRKKAEKDTKKSRFEVQVQDIRVTGDTANIHAVFNEDHNGQPSQDFYVVTMAMNGDKIRFMIQRKSK", "protease stability score": 0.483}
{"sequence": "DERNLRVVKHFWHAVRTGDPEEVKRQADKHVRVRIGDKHIEGRETLAHEVREEKNQLENDIQIRDIKVQGDRVHMRVVVVFNIDGRPQSVQITVEAKAHNGKLQSMSQEVPEEVLHEIEK", "protease stability score": 0.021}
